Experimental data published in US20260185137A1, “FRET Active E2-UBL Conjugates and Uses Thereof” (Board of Regents, The University of Texas System, priority 2021, published 2026).
One block for each molecule: values may come before it.

Key:
UBE2N/V2-Ub conjugate = target: T1, UBE2N/V2-Ub conjugate (Homo sapiens, UniProt P61088); assay: FRET ubiquitin discharge assay, UBE2N/V2-Ub conjugate; type: biochemical; details: per RING monomer; room temperature
T1 construct: made in house; host or cells: bacteria
From the text: To evaluate contributions of distinct RING oligomeric states to TRIM5α autoubiquitination we investigated the catalytic activity of the RING constructs. E3 ubiquitin ligases catalyze the transfer of ubiquitin from the high-energy thioester-linked E2-Ub conjugates onto an amine group of the substrate. One of the challenges in the mechanistic studies of E3 ligases is the difficulty of measuring rates of chemical transformations catalyzed by E3 ligases with sufficient precision. In this study we developed a FRET-based ubiquitin discharge assay that allows continuous, real-time measurement of E3-catalyzed ubiquitin release from E2-Ub conjugates present at nanomolar concentrations in multiple samples in parallel using a fluorescence plate reader (FIG. 3A). […] FRET signals of the E2-Ub conjugates were recorded as a function of time following addition of different RING constructs using AF488 excitation (485/20 nm) and AF594 emission (645/40 nm) bandpass filters. We observed that more than 40% of the total fluorescence signal decayed in a RING-dependent fashion and could, therefore, be attributed to the FRET signal of the conjugate. The outstanding sensitivity, signal-to-noise and throughput of the FRET decay measurements enabled robust and accurate quantification of ubiquitin discharge. […]

TRIM5α RING domain = target: T2, TRIM5α RING domain (Macaca mulatta, UniProt Q0PF16); assay: 15N HSQC NMR spectroscopy of RING constructs (dimer-monomer exchange); parameters: species or system rhesus monkey; details: NMR time scale, 298K
T2 construct: The R1 constructs encompass residues 2-90 of rhesus monkey TRIM5α; 6His (N, cleaved yes); GB1 solubility tag (N, cleaved yes); made in house; host or cells: bacteria
Experimental: We then collected series of ^15N HSQC spectra by gradually decreasing protein concentration of the R1-WT sample from […] to 10 μM. As the concentration of the sample was lowered one set of peaks became progressively weaker whereas a new set of peaks appeared and became dominant (FIG. 2A and FIG. 2B). […] The findings confirmed that the R1-WT construct exists in a dimer-monomer equilibrium and that the two distinct sets of NMR signals present at high and low concentrations correspond to the dimeric and monomeric states of the protein, respectively.
NMR spectroscopy. All NMR experiments were performed in 50 mM Sodium Phosphate (pH 7.5), 150 mM NaCl, 1 mM TCEP, 10% (v/v) D2O, 0.04% (w/v) NaN3, and the data collected at 298K on a Bruker Avance 700-MHz spectrometer equipped with a cryoprobe. Backbone assignments were carried out using standard TROSY triple resonance NMR experiments (HNCO, HN(CA)CO, HN(CO)CA, HNCA, HNCACB, and HN(CO)CACB). Protein concentrations for each experiment are shown in the corresponding figures or noted in figure legends. The NMR data were processed using NMRPipe and spectra evaluated using NMRFAM-Sparky.

T1 sequence (P61088 whole entry, other chains not shown): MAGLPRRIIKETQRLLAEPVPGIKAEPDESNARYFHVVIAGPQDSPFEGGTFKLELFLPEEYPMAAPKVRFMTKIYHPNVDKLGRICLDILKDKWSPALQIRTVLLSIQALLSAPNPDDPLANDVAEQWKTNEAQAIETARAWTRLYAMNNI
T1 sequence (Q15819 whole entry partner, other chains not shown): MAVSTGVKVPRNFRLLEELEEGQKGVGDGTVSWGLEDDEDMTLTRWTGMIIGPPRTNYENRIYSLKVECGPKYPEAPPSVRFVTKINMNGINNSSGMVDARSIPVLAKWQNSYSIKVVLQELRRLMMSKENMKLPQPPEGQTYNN

B1: R2-WT: tandem RING dimer; R82 of first RING linked to A2 of second through Gly-Ser linker (protein)
chain: ASGILLNVKEEVTCPICLELLTEPLSLHCGHSFCQACITANHKKSMLYKEGERSCPVCRISYQPENIQPNRHVANIVEKLRGSASGILLNVKEEVTCPICLELLTEPLSLHCGHSFCQACITANHKKSMLYKEGERSCPVCRISYQPENIQPNRHVANIVEKLREVKLSPEEGQ
- E3 activity (kcat/Km, initial slopes of Michaelis-Menten curves), ubiquitin discharge from UBE2N/V2-Ub conjugate (UBE2N/V2-Ub conjugate): significantly higher than that of the R1-WT

- dimer-monomer exchange rate (TRIM5α RING domain): < 10 Hz
B2: R1-WT: isolated RING monomer construct, residues 2-89 of the rhesus TRIM5α (protein)
chain: ASGILLNVKEEVTCPICLELLTEPLSLHCGHSFCQACITANHKKSMLYKEGERSCPVCRISYQPENIQPNRHVANIVEKLREVKLSPEE
